How the values were obtained:
[1] = target: T1, 6×His tagged human SIRPα v2 ECD recombinant protein (human); test: SPR (Biacore), antibody captured, 6×His tagged human SIRPα v2 ECD as analyte
Method: (§1) Anti-SIRPα chimeric antibodies were characterized for binding affinity against human SIRPα v1, human SIRPα v2 and C57BL/6 mouse SIRPα using Biacore (GE). Briefly the antibodies to be tested were captured to CM5 chip (GE) using Human Antibody Capture Kit (GE). The antigens of 6×His tagged human SIRPα v1, human SIRPα v2 and C57BL/6 mouse SIRPα ECD recombinant proteins were serially diluted for multiple doses and injected at 30 μl/min for 180 s. Buffer flow was maintained for dissociation of 400 s. 3 M MgCl₂ was used for chip regeneration. The association and dissociation curves were fit with 1:1 binding model, and the Ka/Kd/KD values for each antibody were calculated.
(§2) hu035.01, the first version of humanized 035, was characterized by FACS assay using CHOK1-human SIRPα v1-1B4 cells, ELISA assay using Fc tagged human SIRPα v2 ECD recombinant protein and SPR analysis using the antigen of 6×His tagged human SIRPα v2 ECD recombinant protein (refer to methods described in Example 3.4, Example 3.3 and Example 4.3). […] In particular, hu035.01 cannot be detected to bind with C57BL/6 mouse SIRPα ECD in ELISA assay possibly due to reduced binding activity (FIG. 5B).

[2] = target: T2, full length human SIRPα v1 stably expressed on CHOK1 cells (human, UniProt P78324 31-504); test: FACS on CHOK1-human SIRPα v1-1B4 cells
T2 construct: whole, on cells; also called CHOK1-human SIRPα v1-1B4 cells; CHOK1-human SIRPα v1
Method: Species cross reactivity of the purified hybridoma antibodies against human, cyno and mouse SIRPα was determined by FACS assay using CHOK1-human SIRPα v1-1B4 cells, CHOK1-cyno SIRPα-2A2 cells, and CHOK1-C57BL/6 mouse SIRPα-2.22 cells, which stably expressing SIRPα protein. Briefly the antibodies were incubated with 2×10⁵ target cells at 4° C. for 1 hour. After washing, fluorescence labeled anti-mouse or anti-human IgG 2nd antibody (Life Technologies) was added and incubated at 4° C. for 1 hour. Geometric median fluorescence intensity was detected and EC₅₀ was calculated. In particular, it is noted, in contrast to the other antibodies tested in the same experiment, 060 cannot bind with cyno SIRPα and 035 has cross reactivity against C57BL/6 mouse SIRPα.
as §2

[3] = target: T1, 6×His tagged human SIRPα v2 ECD …; test: SPR (Biacore)
Method: as §1, §2

[4] = target: T3, 6×His tagged C57BL/6 mouse SIRPα ECD recombinant protein (mouse (C57BL/6), UniProt P97797 32-373); test: ELISA on coated mouse SIRPα (C57BL/6) ECD, antibody at 10, 1 and 0.1 ug/ml [right panel mSIRPα ECD (C57BL/6]
T3 construct: extracellular domain; bought; also called mSIRPα (C57BL/6); mouse SIRPα (C57BL/6) ECD
T3 sequence: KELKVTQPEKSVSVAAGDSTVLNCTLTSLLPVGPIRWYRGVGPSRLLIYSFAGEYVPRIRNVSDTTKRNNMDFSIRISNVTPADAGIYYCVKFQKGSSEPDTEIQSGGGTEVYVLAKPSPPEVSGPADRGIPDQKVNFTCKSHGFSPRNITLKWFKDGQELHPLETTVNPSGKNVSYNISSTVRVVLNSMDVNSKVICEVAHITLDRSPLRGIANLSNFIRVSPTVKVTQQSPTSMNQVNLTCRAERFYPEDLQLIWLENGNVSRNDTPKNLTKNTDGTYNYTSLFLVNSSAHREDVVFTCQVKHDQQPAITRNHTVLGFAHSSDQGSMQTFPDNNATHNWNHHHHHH

T1 sequence (chain, as listed by the source): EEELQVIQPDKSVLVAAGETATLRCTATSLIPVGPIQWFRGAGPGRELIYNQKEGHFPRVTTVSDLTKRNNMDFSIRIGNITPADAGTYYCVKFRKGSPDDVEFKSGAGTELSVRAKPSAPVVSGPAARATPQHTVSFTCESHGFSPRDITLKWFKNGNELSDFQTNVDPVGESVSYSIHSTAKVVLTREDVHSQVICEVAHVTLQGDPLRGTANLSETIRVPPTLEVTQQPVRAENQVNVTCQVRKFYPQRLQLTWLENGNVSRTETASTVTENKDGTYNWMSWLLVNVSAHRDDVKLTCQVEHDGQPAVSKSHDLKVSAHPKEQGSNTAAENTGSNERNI

koff [1]: 0.00065 s⁻¹ | kon [1]: 12200 M⁻¹ s⁻¹ | EC50 (read off the curve) [2]: ~0.5 µg/mL | Kd [3]: 53.4 nM | binding result [4]: no binding (tested: 10 ug/ml)
B1: humanized antibody hu035.01 (antibody, V domains shown)
VH: QIQLVQSGSELKKPGASVKVSCKASGYTFTNYAMNWVRQAPGQGLEWMGWINTYTGEPTYAQGFKGRFVFSLDTSVSTAYLQISSLKAEDTAVYYCARTRGYYDFDGGAFDYWGQGTLVTVSS
VL: DIQMTQSPSSLSASVGDRVTITCRASQNVGTHLAWFQQKPGKAPKSLIYSASYRYIGVPSRFSGSGSGTDFTLTISSLQPEDFATYYCQQYNTYPLTFGQGTKLEIK
notes: first humanized version of 035 (CDR graft on VH7-4-1 / VK1-16)

Reference: patent US20210347908A1 (ELPISCIENCE SUZHOU BIOPHARMA, published 2021)
